Results on one molecule are retold here after patent US7291458B2, “Leptin-mediated gene-induction” (Vlaams Interuniversitair Instituut Voor Biotechnologie VZW, priority 1998, dated 2007).

The subject of test [1] is differentiated PC12-LR8 cells. Briefly: RDA and Northern blot of leptin-responsive genes in differentiated PC12-LR8 cells. The test is classed as cell-based, rat. The following applies: leptin 24 hours, continued presence of b-NGF and forskolin. The protocol:
Adherent PC12-LR8 cells were treated with b-NGF and forskolin for 5 days to induce neuronal differentiation. Differentiated cells were treated with leptin (nF/L) for 24 hours, or were left untreated (nF), in the continued presence of b-NGF and forskolin. Non-differentiated cells were treated for 24 hours with leptin and forskolin (F/L) or with forskolin alone (F). Hybridization was performed with probes as indicated. Mouse b-actin probe was used as a control. Exposure to BioMax film at −80° C. was 3 days for Mx2, 3 hours for peripherin, 4 days for PAP III and 16 hours for b-actin.
The search for leptin-regulated genes was also extended to differentiated PC12 cells (FIG. 5). Adherent PC12-LR8 cells were treated with b-NGF and forskolin for 5 days, which led to a growth arrest, the formation of branched neuritic processes and the accumulation of small vesicles. Again, a RDA experiment was performed using mRNAs from differentiated cells treated with leptin for 24 hours, or from untreated cells, both in the continued presence of b-NGF and forskolin.
For neuronal differentiation, resuspended PC12 were seeded on rat tail collagen (Collaborative Biomedical Products) coated plates at 2-3 10^6 cells/25 cm^2 flask in RMPI 1640 medium with glutamax-I containing 10% heat-inactivated horse serum, 5% iFCS and gentamycin. […]

The test system of another test is PC12 cells. Briefly: RDA of PC12 cells transiently transfected with pMET7-mLRlo. The following applies: leptin-forskolin co-stimulated versus forskolin alone. The test is classed as cell-based, rat. The protocol: To search for genes regulated by leptin in the PC12 cell line, a RDA (representational difference analysis) experiment was performed using a modification of the original method (Hubank and Schatz, 1994). Using this procedure, it is possible to clone amplicons corresponding to transcripts from leptin-forskolin co-stimulated PC12 cells, transiently transfected with pMET7-mLRlo. After three rounds of subtraction/amplification, selectively amplified bands were purified and subcloned in the pCDNA3 or pCR-Blunt vector (Invitrogen). […] Based on this observation, a simple one-tube RT-PCR based procedure was set up to select for PC12 subclones, stably expressing the leptin receptor long isoform (FIG. 2 portion A). One stable clone, PC12-LR8, was chosen for further experiments (FIG. 2 portion B). Individual inserts from the cloned amplicon collection were radiolabeled and leptin-dependent gene regulation was verified and studied in more detail by Northern blot analysis on the PC12-LR8 cell line.
RDA was used to clone differentially expressed cDNAs from PC12 cells, transiently transfected with the leptin receptor long isoform, or from neuronal differentiated PC12-LR8 cells, which stably express the leptin receptor long isoform. In both cases, cloning was performed using mRNA from cells either stimulated with leptin+forskolin or with forskolin alone. […]

B1: leptin: mouse leptin (R&D Systems), ob gene product, used on PC12 cells at 100 ng/ml (protein)
chain: VPIQKVQDDTKTLIKTIVTRINDISHTQSVSAKQRVTGLDFIPGLHPILSLSKMDQTLAVYQQVLTSLPSQNVLQIANDLENLRDLLHLLAFSKSCSLPQTSGLQKPESLDGVLEASLYSTEVVALSRLQGSLQDILQQLDVSPEC
For B1, in test [1], the “regulation of Mx2, Peripherin and PAP III transcripts” value is listed as “up-regulated”. The “induction of rat Pancreatitis Associated Protein I (rPAP I) transcript” value in the test with PC12 cells is listed as “strongly induced”.
